Assays:
[1] = molecular target: T1, human FAP (huFAP) expressed on cells (human, UniProt Q12884 1-760); experiment: FACS titration (10 ug/ml to 3.16 ng/ml) on WI-38 cells
T1 construct: also called WI-38 cells
T1 sequence: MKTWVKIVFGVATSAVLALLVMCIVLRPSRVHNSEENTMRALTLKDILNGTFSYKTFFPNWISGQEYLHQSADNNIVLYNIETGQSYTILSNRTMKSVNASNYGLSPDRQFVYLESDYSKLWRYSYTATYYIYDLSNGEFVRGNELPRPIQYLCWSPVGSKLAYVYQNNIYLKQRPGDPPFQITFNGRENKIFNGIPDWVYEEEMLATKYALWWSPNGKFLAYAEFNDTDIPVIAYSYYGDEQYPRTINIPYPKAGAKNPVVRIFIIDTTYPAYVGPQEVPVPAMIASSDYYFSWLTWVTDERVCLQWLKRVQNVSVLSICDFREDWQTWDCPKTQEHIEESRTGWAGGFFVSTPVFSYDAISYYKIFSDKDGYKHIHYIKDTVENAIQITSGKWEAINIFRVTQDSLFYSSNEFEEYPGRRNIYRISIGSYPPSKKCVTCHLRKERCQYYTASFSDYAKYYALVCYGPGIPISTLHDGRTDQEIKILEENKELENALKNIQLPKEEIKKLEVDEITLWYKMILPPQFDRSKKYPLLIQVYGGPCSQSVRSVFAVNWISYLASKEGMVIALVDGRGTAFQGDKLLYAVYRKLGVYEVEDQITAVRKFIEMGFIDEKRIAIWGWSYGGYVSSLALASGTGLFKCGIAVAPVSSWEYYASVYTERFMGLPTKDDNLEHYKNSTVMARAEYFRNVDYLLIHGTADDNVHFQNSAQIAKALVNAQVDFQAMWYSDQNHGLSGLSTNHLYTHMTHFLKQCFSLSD
Protocol: (§1) The human anti-FAP panel was tested on WI-38 cells (endogenously expressing huFAP) and binding was measured by FACS.
(§2) The target cells were harvested, counted, and centrifuged for 5 min at 300 g at 4° C. Cells were then resuspended in FACS buffer at a concentration of 1×10⁶ cells/ml and transferred (200,000 cells/well) to a U-bottom 96-well FACS plate (BD, cat. #353910). Cells were washed by adding 200 μl PBS and centrifuged for 3 min at 300 g at 4 °C. Cells were then centrifuged for 3 min at 300 g at 4° C. and supernatant was discarded. Antibodies were diluted in an 8 steps, semi-log dilution series ranging from 10 ug/ml to 3.16 ng/ml in FACS buffer (50 μ/well), mixed, and incubated for 30 min at 2-8° C. in the dark. A titration of the sibrotuzumab analog was included as positive control and used to normalize data. The negative control TT antibody was included as negative control. Cells were washed by adding 150 μl FACS buffer and centrifuged for 3 min at 300 g at 4° C. Supernatant was discarded, and cells were washed again by adding 200 μl FACS buffer to the plate. Cells were then centrifuged for 3 min at 300 g at 4° C. and afterwards the supernatant was discarded. […] Fluorescence intensity of the cells was then measured on the iQue VBR (Intellicyt).

[2] = molecular target: T1, human FAP (huFAP) expressed on cells; experiment: FACS titration (10 ug/ml to 3.16 ng/ml) on WI-38 cells; positive control sibrotuzumab analog
Protocol: as §1, §2

B1: anti-human FAP bivalent monospecific IgG comprising heavy chain variable region SEQ ID NO: 69 (antibody, V domains shown)
VH: EVQLVETGGGLIQPGGSLRLSCAASGFTVSSNYMSWVRQAPGKGLEWVSVIYSGGSTYYADSVKGRFTISRDNSKNTLYLQMNSLRAEDTAVYYCARGPTDAYPYLDYLWGQGTLVTVSS
VL: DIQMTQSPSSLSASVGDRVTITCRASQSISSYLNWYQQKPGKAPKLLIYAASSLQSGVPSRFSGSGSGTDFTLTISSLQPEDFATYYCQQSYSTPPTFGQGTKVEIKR
notes: IgG1 format, common light chain VK1-39/JK1; also called human/mouse cross-reactive FAP IgG
[1]
  binding result: binds

B2: anti-human FAP bivalent monospecific IgG comprising heavy chain variable region SEQ ID NO: 15 (antibody, V domains shown)
VH: QLQLQESGPGLVKPSETLSLTCTVSGGSISSSSYFWAWIRQPPGKGLEFIGNIYYSGSTYYNPSLKSRVTISVDTSKNQFSLKLSSVTAADTAVYYCARPSYYGSGNYYFAFWGQGTLVTVSS
VL: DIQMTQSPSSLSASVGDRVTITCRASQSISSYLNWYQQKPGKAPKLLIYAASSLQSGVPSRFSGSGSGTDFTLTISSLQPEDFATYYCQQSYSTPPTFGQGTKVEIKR
notes: IgG1 format, common light chain VK1-39/JK1
[1]
  binding result: binds

B3: anti-human FAP bivalent monospecific IgG comprising heavy chain variable region SEQ ID NO: 19 (antibody, V domains shown)
VH: EVQLVESGGGLVKPGGSLRLSCAASGFPFNYAWMSWVRQAPGKGLEWVGRIKPKTSGGATDYAAPVKDRFTISRDDSRNTLYLQMNSLKTEDTAVYYCSAREDIWNFFFDLWGQGTLVTVSS
VL: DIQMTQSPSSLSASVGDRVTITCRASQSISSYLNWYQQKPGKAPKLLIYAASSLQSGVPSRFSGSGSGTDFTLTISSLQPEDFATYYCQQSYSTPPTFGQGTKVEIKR
notes: as for B2
[2]
  binding result: binds

From patent publication US20240218070A1 (MERUS N V, published 2024)
